Results reported in patent US8703915B2, “Mutant proteins and methods for producing them” (Heptares Therapeutics Limited, priority 2009, dated 2014).

Assays:
5HT2C receptor [1] = experiment: Thermostability of 5HT2C receptor bound to agonist SCH23390; format: physicochemical, human
Protocol: An alanine scan has been carried out on the 5HT2C receptor in the presence of the agonist SCH23390 in order to stabilise the agonist conformation. Similar to A2A, it appears that mutating L2.46 (L95 in 5HT2C) to alanine confers significant stability on this receptor increasing the Tm of the receptor by 5.4° C. (FIG. 7). It is notable that in addition to L95, mutating the nearby M93 (two residues away from L2.46) to alanine also confers stability to the agonist bound receptor, resulting in an increase of 2.9° C.
(§1) A2AR-(2-316) expression was carried out by using the pRG/III-hs-MBP E. coli expression vector and DH5α cells. Cells were grown at 37° C. in 2 L flasks containing 500 mL of 2×TY medium supplemented with Ampicillin (100 μg/mL) and glucose (0.2% w/v). At OD600≈0.7, IPTG and theophylline were added at final concentrations respectively of 0.5 mM and 100 μM, and the temperature was reduced to 20° C. After 22 to 24 hours, cells were harvested in aliquots of 14 mL, centrifuged for 30 min and stored at −20° C. Both 5HT2C and M4 receptors were transiently expressed in HEK293T cells using GeneJuice transfection reagent used according to the manufacturers guidelines.
(§2) 5HT2C receptor was solubilised from transiently transfected mammalian cells in 50 mM Hepes pH7.4, 100 mM KCl, 0.5% DDM (0.1% CHS/0.6% CHAPS was added to cells for SCH23390 agonist assay). Tm analysis was performed directly on the soluble lysate. The Tm was determined by incubating 108 μl of the lysate with [N^6-methyl-^3H]Mesulergine radioligand at a final concentration of 17 nM or 9 nM [^3H]SCH23390 for one hour at 4° C. The six ligand incubations are then incubated at six different temperatures from 25° C. to 55° C., for thirty minutes. Receptor bound and free radioligand were separated using a 96-well plate gel filtration assay.
5HT2C receptor was solubilised from transiently transfected mammalian cells about 40 hours post transfection, in 50 mM Hepes pH7.4/100 mM KCl/0.5% DDM/(0.1% CHS/0.6% CHAPS was added to cells for SCH23390 agonist assay) and protease inhibitor. Cell lysates were left at 4° C. on a rotator and then cleared by centrifugation at 13,200 rpm for 20 minutes at 4° C. Thermostability analysis was performed directly on the soluble lysate. The Tm was determined by incubating 108 μl of the lysate with [N^6-methyl-^3H]Mesulergine radioligand at a final concentration of 17 nM or 9 nM [^3H]SCH23390 for one hour at 4° C. The six ligand incubations are then incubated at six different temperatures from 25° C. to 55° C., for thirty minutes. Receptor bound and free radioligand were separated using G25 Sephadex spin columns.

5HT2C receptor [2] = target: T1, 5HT2C receptor (Homo sapiens, UniProt P28335, L95A); experiment: Thermostability of 5HT2C receptor bound to antagonist mesulergine; format: physicochemical; conditions: antagonist bound 5HT2C, data not shown
T1 construct: made in house
T1 sequence (P28335 33-458 L95A): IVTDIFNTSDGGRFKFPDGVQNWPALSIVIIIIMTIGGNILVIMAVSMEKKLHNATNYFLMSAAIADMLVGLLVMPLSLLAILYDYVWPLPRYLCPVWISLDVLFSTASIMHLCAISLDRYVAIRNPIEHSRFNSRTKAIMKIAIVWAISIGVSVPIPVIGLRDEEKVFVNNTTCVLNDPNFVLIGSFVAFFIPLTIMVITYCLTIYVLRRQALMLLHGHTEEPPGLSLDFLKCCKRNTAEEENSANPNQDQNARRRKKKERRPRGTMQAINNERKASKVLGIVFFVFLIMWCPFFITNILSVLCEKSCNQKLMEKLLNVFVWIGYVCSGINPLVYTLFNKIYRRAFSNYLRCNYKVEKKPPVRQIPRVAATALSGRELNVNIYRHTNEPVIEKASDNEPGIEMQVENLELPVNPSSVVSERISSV
Protocol: as §1, §2

5HT2C receptor [3] = experiment: as above; format: physicochemical, human; conditions: bound to antagonist (mesulergine)
Protocol: as §1, §2

5HT2C receptor [4] = target: T2, 5HT2C receptor (Homo sapiens, UniProt P28335, S94A); experiment: as above; format: physicochemical; conditions: antagonist bound, versus parent 5HT2C
T2 construct: made in house
T2 sequence (P28335 33-458 S94A): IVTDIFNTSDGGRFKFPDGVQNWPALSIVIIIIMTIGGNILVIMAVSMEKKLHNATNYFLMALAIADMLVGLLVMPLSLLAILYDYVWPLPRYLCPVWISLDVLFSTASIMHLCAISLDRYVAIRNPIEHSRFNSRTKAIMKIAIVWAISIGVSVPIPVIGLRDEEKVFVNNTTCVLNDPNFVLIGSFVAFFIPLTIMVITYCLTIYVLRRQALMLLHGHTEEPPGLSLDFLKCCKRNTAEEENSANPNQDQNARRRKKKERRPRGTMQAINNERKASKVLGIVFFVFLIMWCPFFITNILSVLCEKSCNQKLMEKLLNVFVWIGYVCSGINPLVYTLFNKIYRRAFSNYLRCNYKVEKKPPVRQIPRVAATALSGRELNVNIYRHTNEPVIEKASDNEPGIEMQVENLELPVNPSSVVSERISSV
Protocol: as §1, §2

[5] = target: neurotensin receptor NTS1 (Rattus norvegicus, UniProt P20789, Y369A); experiment: Two point thermostability assay, neurotensin agonist binding to NTS1 alanine scan mutants; format: physicochemical
Text: An alanine scan has been carried out on the rat neurotensin receptor NTS1 in the presence of the agonist neurotensin in order to stabilise the agonist conformation.

A2A receptor = target: T3, A2A receptor (Homo sapiens, UniProt P29274, N284A); experiment: Two point thermostability measurement, NECA binding to A2A alanine scan mutants in DDM; format: physicochemical; conditions: 4° C. versus destabilising temperature such as 30° C.
T3 construct: A2AR-(2-316) expression was carried out by using the pRG/III-hs-MBP E. coli expression vector; MBP (named only in the vector name); made in house
Protocol: In the A2A agonist-bound study the effect of mutations from the alanine scan were determined initially by two point thermostability measurements. In these experiments, the wild type receptors and receptors containing single mutants were solubilised in the detergent DDM and the amount of NECA binding retained at 4° C. and at a destabilising temperature such as 30° C. was determined. A>10% increase in agonist binding to the mutant receptor compared to the wild type receptor at the destabilising temperature is considered to be significant and is indicative of an increase in thermostability.

B1: L95A: 5HT2C receptor mutant, L2.46 (L95 in 5HT2C) to alanine (protein, UniProt P28335 33-458, looked up, variant L95A)
5-hydroxytryptamine receptor …: IVTDIFNTSDGGRFKFPDGVQNWPALSIVIIIIMTIGGNILVIMAVSMEKKLHNATNYFLMSAAIADMLVGLLVMPLSLLAILYDYVWPLPRYLCPVWISLDVLFSTASIMHLCAISLDRYVAIRNPIEHSRFNSRTKAIMKIAIVWAISIGVSVPIPVIGLRDEEKVFVNNTTCVLNDPNFVLIGSFVAFFIPLTIMVITYCLTIYVLRRQALMLLHGHTEEPPGLSLDFLKCCKRNTAEEENSANPNQDQNARRRKKKERRPRGTMQAINNERKASKVLGIVFFVFLIMWCPFFITNILSVLCEKSCNQKLMEKLLNVFVWIGYVCSGINPLVYTLFNKIYRRAFSNYLRCNYKVEKKPPVRQIPRVAATALSGRELNVNIYRHTNEPVIEKASDNEPGIEMQVENLELPVNPSSVVSERISSV
increase of Tm (5HT2C receptor [1]; agonist SCH23390 bound, versus parent 5HT2C): 5.4 °C | Tm (5HT2C receptor [1]; bound to agonist SCH23390): 48.8 °C | effect on thermal stability (5HT2C receptor [2]): did not confer any stability

B2: S94A: 5HT2C receptor mutant, S94 to alanine (protein, UniProt P28335 33-458, looked up, variant S94A)
5-hydroxytryptamine receptor …: IVTDIFNTSDGGRFKFPDGVQNWPALSIVIIIIMTIGGNILVIMAVSMEKKLHNATNYFLMALAIADMLVGLLVMPLSLLAILYDYVWPLPRYLCPVWISLDVLFSTASIMHLCAISLDRYVAIRNPIEHSRFNSRTKAIMKIAIVWAISIGVSVPIPVIGLRDEEKVFVNNTTCVLNDPNFVLIGSFVAFFIPLTIMVITYCLTIYVLRRQALMLLHGHTEEPPGLSLDFLKCCKRNTAEEENSANPNQDQNARRRKKKERRPRGTMQAINNERKASKVLGIVFFVFLIMWCPFFITNILSVLCEKSCNQKLMEKLLNVFVWIGYVCSGINPLVYTLFNKIYRRAFSNYLRCNYKVEKKPPVRQIPRVAATALSGRELNVNIYRHTNEPVIEKASDNEPGIEMQVENLELPVNPSSVVSERISSV
Tm (5HT2C receptor [3]): 48.9 °C | increase of Tm (5HT2C receptor [4]): 11.76 °C

B3: Y369: rat neurotensin receptor NTS1 mutant, residue 7.53 (Y369) to alanine (protein, listed as Rattus norvegicus)
chain: MHLNSSVPQGTPGEPDAQPFSGPQSEMEATFLALSLSNGSGNTSESDTAGPNSDLDVNTDIYSKVLVTAIYLALFVVGTVGNSVTAFTLARKKSLQSLQSTVHYHLGSLALSDLLILLLAMPVELYNFIWVHHPWAFGDAGCRGYYFLRDACTYATALNVASLSVERYLAICHPFKAKTLMSRSRTKKFISAIWLASALLAIPMLFTMGLQNRSGDGTHPGGLVCTPIVDTATVKVVIQVNTFMSFLFPMLVISILNTVIANKLTVMVHQAAEQGRVCTVGTHNGLEHSTFNMTIEPGRVQALRHGVLVLRAVVIAFVVCWLPYHVRRLMFCYISDEQWTTFLFDFYHYFYMLTNALFYVSSAINPILANLVSANFRQVFLSTLACLCPGWRHRRKKRPTFSRKPNSMSSNHAFSTSATRETLY
thermostability (agonist binding at the destabilising temperature compared to wild type) [5]: increased agonist binding compared to the wild type receptor

B4: N284: adenosine A2A receptor alanine scan mutant of Asparagine 284 (protein, listed as Homo sapiens)
chain: MPIMGSSVYITVELAIAVLAILGNVLVCWAVWLNSNLQNVTNYFVVSLAAADIAVGVLAIPFAITISTGFCAACHGCLFIACFVLVLTQSSIFSLLAIAIDRYIAIRIPLRYNGLVTGTRAKGIIAICWVLSFAIGLTPMLGWNNCGQPKEGKNHSQGCGEGQVACLFEDVVPMNYMVYFNFFACVLVPLLLMLGVYLRIFLAARRQLKQMESQPLPGERARSTLQKEVHAAKSLAIIVGLFALCWLPLHIINCFTFFCPDCSHAPLWLMYLAIVLSHTNSVVAPFIYAYRIREFRQTFRKIIRSHVLRQQEPFKAAGTSARVLAAHGSDGEQVSLRLNGHPPGVWANGSAPHPERRPNGYALGLVSGGSAQESQGNTGLPDVELLSHELKGVCPEPPGLDDPLAQDGAGVS
thermostability (agonist binding at the destabilising temperature compared to wild type) (A2A receptor): increased thermostability
